Assay results published in the supplement of paper PMC7877785.
± gives the uncertainty stated by the source.

Assay: self-splicing fitness, log relative to wild type (ln ratio); higher = more splicing; Tetrahymena group I intron in knt gene, E. coli kanamycin selection, DiMSum; sequences stand for … in CUCUCU…GGAGGGAAAAGUUAUCAGGCAUGCACCUGGUAGCUAGUCUUUAAACCAAUAGAUUGCAUCGGUUUAAAAGGCAAGACCGUCAAAUUGCGGGAAAGGGGUCAACAGCCGUUCAGUACCAAGUCUCAGGGGAAACUUUGAGAUGGCCUUGCAAAGGGUAUGGUAAUAAGCUGACGGACAUGGUCCUAACCACGCAGCCAAGUCCUAAGUCAACAGAUCUUCUGUUGAUAUGGAUGCAGUUCACAGACUAAAUGUCGGUCGGGGAAGAUGUAUUCUUCUCAUAAGAUAUAGUCGGACCUCUCCUUAAUGGGAGCUAGCGGAUGAAGUGAUGCAACACUGGAGCCGCUGGGAACUAAUUUGUAUGCGAAAGUAUAUUGAUUAGUUUUGGAGUACUCGUGGUCG
Summary of the method: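 Six replicate transformations of E. coli BL21(DE3) with a pET-22b(+) library were grown overnight at 37°C or 30°C. The library randomised all eight P1ex-region intron nucleotides, the intron lying in the knt kanamycin-resistance gene, and plates were LB agar with or without 25 μg/mL kanamycin plus 100 μg/mL carbenicillin, 50 μM IPTG and 0.2% rhamnose. Pooled colonies were amplicon-sequenced on an Illumina HiSeq 2500, and fitness is the DiMSum error-weighted combination of wild-type-normalised replicate fold changes, kanamycin versus none.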

| Sequence | self-splicing fitness (ln) (30 °C) | self-splicing fitness (ln) (37 °C) |
| --- | --- | --- |
| CACUAGCAAUAUUACGGAGC | -4.52 ± 0.28 | -2.8 ± 0.15 |
| GCCUAGCAAUAUUACGCGAA | -2.72 ± 0.18 | -1.64 ± 0.14 |
| GCCUAGCAAUAUUACGCGUG | -4.17 ± 0.42 | -0.758 ± 0.17 |
| GAGUAGCAAUAUUACGAGAG | -3.63 ± 0.24 | -3.64 ± 0.27 |
| AACUAGCAAUAUUACGUCGA | -0.769 ± 0.087 | -0.975 ± 0.09 |
| GAUGAGCAAUAUUACGUUUG | -3.24 ± 0.21 | -2.77 ± 0.26 |
| GCCUAGCAAUAUUACGGCCA | -1.81 ± 0.33 | -1.52 ± 0.35 |
| UGAUAGCAAUAUUACGCAAA | -2.25 ± 0.19 | -0.0467 ± 0.16 |
| UAUCAGCAAUAUUACGCUCC | -1 ± 0.29 | -0.504 ± 0.31 |
| AUACAGCAAUAUUACGACAG | -2.15 ± 0.14 | -2.03 ± 0.15 |
| UGCCAGCAAUAUUACGCAUU | -3.81 ± 0.46 | -1.24 ± 0.21 |
| CGACAGCAAUAUUACGCUGU | -3.04 ± 0.14 | -2.55 ± 0.15 |
| UACUAGCAAUAUUACGUGGU | -2.87 ± 0.14 | -2.75 ± 0.17 |
| CGUCAGCAAUAUUACGGGUU | -3.44 ± 0.17 | -2.56 ± 0.15 |
| ACUGAGCAAUAUUACGUGGC | -3.3 ± 0.22 | -1.79 ± 0.25 |
| UCACAGCAAUAUUACGGAAU | -4.32 ± 0.25 | -2.97 ± 0.22 |
| CUGGAGCAAUAUUACGUAAU | -2.46 ± 0.29 | – |
| CCUUAGCAAUAUUACGUGCU | -3.4 ± 0.18 | -2.83 ± 0.31 |
| ACAUAGCAAUAUUACGCAAA | -3.29 ± 0.16 | -2.25 ± 0.14 |
| GCAGAGCAAUAUUACGAUCA | -4.02 ± 0.42 | -1.94 ± 0.18 |
| CGUAAGCAAUAUUACGAUUG | -0.745 ± 0.079 | -0.605 ± 0.11 |
| CCCGAGCAAUAUUACGCGCA | -3.47 ± 0.34 | -1.28 ± 0.3 |
| GCCGAGCAAUAUUACGCAGU | -2.75 ± 0.33 | -2.25 ± 0.23 |
| UGCUAGCAAUAUUACGUCCU | -1.19 ± 0.12 | -0.143 ± 0.14 |

| Sequence | self-splicing fitness (ln) (30 °C) | self-splicing fitness (ln) (37 °C) |
| --- | --- | --- |
| AGGUAGCAAUAUUACGGGAA | -2.69 ± 0.027 | -2.11 ± 0.038 |
| CGUCAGCAAUAUUACGUGCC | -0.61 ± 0.16 | 0.32 ± 0.19 |
| GACAAGCAAUAUUACGGCGG | -3.27 ± 0.29 | -1.87 ± 0.18 |
| AGACAGCAAUAUUACGGAGA | -3.65 ± 0.18 | -2.55 ± 0.29 |
| AUGAAGCAAUAUUACGACAG | 0.129 ± 0.068 | 0.414 ± 0.095 |
| GACGAGCAAUAUUACGGGCC | -2.12 ± 0.14 | -1.63 ± 0.21 |
| AUUUAGCAAUAUUACGAUCA | -1.08 ± 0.19 | 0.104 ± 0.16 |
| UGAAAGCAAUAUUACGGAAG | -1.78 ± 0.11 | -1.15 ± 0.14 |
| UGUGAGCAAUAUUACGCAGU | – | -1.74 ± 0.26 |
| GGCUAGCAAUAUUACGAUGA | -0.793 ± 0.15 | -0.54 ± 0.16 |
| GGCCAGCAAUAUUACGCAAC | -1.19 ± 0.1 | -0.97 ± 0.12 |
| AGGAAGCAAUAUUACGAGGG | -3.63 ± 0.26 | -3.07 ± 0.29 |
| CCCUAGCAAUAUUACGAAGC | -2.97 ± 0.43 | -2.92 ± 0.27 |
| CUGCAGCAAUAUUACGCUCU | -3.52 ± 0.41 | -2.27 ± 0.25 |
| AACGAGCAAUAUUACGGACU | -1.88 ± 0.13 | -0.603 ± 0.21 |
| AGUUAGCAAUAUUACGGAAG | -3.57 ± 0.3 | -3.07 ± 0.43 |
| CGCGAGCAAUAUUACGCCUU | -2.45 ± 0.43 | – |
| GGGUAGCAAUAUUACGACCA | -0.444 ± 0.23 | -0.732 ± 0.42 |
| GAGGAGCAAUAUUACGUCCA | -1.23 ± 0.12 | -0.83 ± 0.16 |
| CAAUAGCAAUAUUACGCCUU | -2.1 ± 0.23 | -0.997 ± 0.24 |
| GAGAAGCAAUAUUACGGCAC | -1.28 ± 0.083 | -0.111 ± 0.15 |
| UAAUAGCAAUAUUACGUAUA | -1.82 ± 0.17 | -1.17 ± 0.17 |
| UAGGAGCAAUAUUACGAGUA | -2.81 ± 0.24 | -1.93 ± 0.22 |
| AAGUAGCAAUAUUACGAACU | -0.525 ± 0.1 | 0.139 ± 0.12 |
